Experimental data reported in US10143730B2, “Peptides and combination of peptides for use in immunotherapy against various cancers” (immatics biotechnologies GmbH, priority 2015, dated 2018).

Target: T1, HLA-A*02 (Homo sapiens, UniProt P04439, D140Y/D185E/D98H/E176V/E277Q/G131W/G231S/I119V/I121R/I166T/I218V/L300P/N151K/N90K/P208A/P217A/Q86G/Q94H/R138H/R169H)
T1 construct: made in house
Assay: MHC binding assay, UV-ligand exchange with beta2m ELISA (peptide exchange yield)
Details: binding to HLA-A*02
Source text: Candidate peptides for T cell based therapies according to the present invention were further tested for their MHC binding capacity (affinity). The individual peptide-MHC complexes were produced by UV-ligand exchange, where a UV-sensitive peptide is cleaved upon UV-irradiation, and exchanged with the peptide of interest as analyzed. Only peptide candidates that can effectively bind and stabilize the peptide-receptive MHC molecules prevent dissociation of the MHC complexes. To determine the yield of the exchange reaction, an ELISA was performed based on the detection of the light chain (β2m) of stabilized MHC complexes. The assay was performed as generally described in Rodenko et al. (Rodenko et al., 2006).
96 well MAXISorp plates (NUNC) were coated over night with 2 ug/ml streptavidin in PBS at room temperature, washed 4× and blocked for 1h at 37° C. in 2% BSA containing blocking buffer. Refolded HLA-A*02:01/MLA-001 monomers served as standards, covering the range of 15-500 ng/ml. Peptide-MHC monomers of the UV-exchange reaction were diluted 100 fold in blocking buffer. Samples were incubated for 1h at 37° C., washed four times, incubated with 2 ug/ml HRP conjugated anti-32m for 1h at 37° C., washed again and detected with TMB solution that is stopped with […]. Absorption was measured at 450 nm. Candidate peptides that show a high exchange yield (preferably higher than 50%, most preferred higher than 75%) are generally preferred for a generation and production of antibodies or fragments thereof, and/or T cell receptors or fragments thereof, as they show sufficient avidity to the MHC molecules and prevent dissociation of the MHC complexes.

| Substance | Peptide exchange (MHC class I binding score, peptide exchange yield) |
| --- | --- |
| 42 (LLDSVSRL; listed as Homo sapiens) [compound 42] | + (<20% = +) |
| 76 (AVGPVHNSV; listed as Homo sapiens) [compound 76] | ++ (20%-49% = ++) |
| 39 (HLLEGSVGV; listed as Homo sapiens) [compound 39] | +++ (50%-75% = +++) |
| 3 (KLEENGDLYL; listed as Homo sapiens) [compound 3] | ++++ (> = 75% = ++++) |
| 60 (ALFAPLVHL; listed as Homo sapiens) [compound 60] | +++ (50%-75% = +++) |
| 10 (GIAGSLKTV; listed as Homo sapiens) [compound 10] | +++ (50%-75% = +++) |
| 36 (SLADTNSLAVV; listed as Homo sapiens) [compound 36] | +++ (50%-75% = +++) |
| 65 (SVVPDVRSV; listed as Homo sapiens) [compound 65] | ++ (20%-49% = ++) |
| 75 (AVIKFLELL; listed as Homo sapiens) [compound 75] | +++ (50%-75% = +++) |
| 50 (ILFHGVFYA; listed as Homo sapiens) [compound 50] | +++ (50%-75% = +++) |
| 61 (AIVKEIVNI; listed as Homo sapiens) [compound 61] | ++ (20%-49% = ++) |
| 80 (KLYEADFVL; listed as Homo sapiens) [compound 80] | ++ (20%-49% = ++) |
| 63 (SQIPAQPSV; listed as Homo sapiens) [compound 63] | ++ (20%-49% = ++) |
| 13 (ALMAMLVYV; listed as Homo sapiens) [compound 13] | ++ (20%-49% = ++) |
| 54 (VLNPLITAV; listed as Homo sapiens) [compound 54] | +++ (50%-75% = +++) |
| 32 (VQLDSIEDLEV; listed as Homo sapiens) [compound 32] | +++ (50%-75% = +++) |
| 79 (VTFKEYVTV; listed as Homo sapiens) [compound 79] | ++ (20%-49% = ++) |
| 30 (AMIEEVFEA; listed as Homo sapiens) [compound 30] | ++ (20%-49% = ++) |
| 66 (KLIFSVEAV; listed as Homo sapiens) [compound 66] | +++ (50%-75% = +++) |
| 72 (FLTAINYLL; listed as Homo sapiens) [compound 72] | +++ (50%-75% = +++) |
| 87 (TIYKDFVYI; listed as Homo sapiens) [compound 87] | ++ (20%-49% = ++) |
| 77 (TLIDEQDIPLV; listed as Homo sapiens) [compound 77] | +++ (50%-75% = +++) |
| 81 (NALDKVLSV; listed as Homo sapiens) [compound 81] | +++ (50%-75% = +++) |
| 71 (VLHSKFWVV; listed as Homo sapiens) [compound 71] | +++ (50%-75% = +++) |
| 78 (TVVTRLDEI; listed as Homo sapiens) [compound 78] | ++ (20%-49% = ++) |
| 19 (SISDNVWEV; listed as Homo sapiens) [compound 19] | +++ (50%-75% = +++) |
| 53 (KMVGLVVAI; listed as Homo sapiens) [compound 53] | +++ (50%-75% = +++) |
| 58 (YLLPLLPAL; listed as Homo sapiens) [compound 58] | +++ (50%-75% = +++) |

More lines, now with the values ahead:

| Peptide exchange (MHC class I binding score, peptide exchange yield) | Substance |
| --- | --- |
| +++ (50%-75% = +++) | 252 (RLMEICESL; listed as Homo sapiens) [compound 252] |
| +++ (50%-75% = +++) | 253 (ALAELIDNSL; listed as Homo sapiens) [compound 253] |
| ++ (20%-49% = ++) | 256 (SLGEEQFSV; listed as Homo sapiens) [compound 256] |
| ++++ (> = 75% = ++++) | 112 (SLGKFTFDV; listed as Homo sapiens) [compound 112] |
| ++ (20%-49% = ++) | 89 (QLAPVFQRV; listed as Homo sapiens) [compound 89] |
| +++ (50%-75% = +++) | 130 (SLLGGTFVGI; listed as Homo sapiens) [compound 130] |
| +++ (50%-75% = +++) | 94 (LLLPAVPVGA; listed as Homo sapiens) [compound 94] |
| +++ (50%-75% = +++) | 110 (FLLGVSKEV; listed as Homo sapiens) [compound 110] |
| ++ (20%-49% = ++) | 244 (YLLEKNRVV; listed as Homo sapiens) [compound 244] |
| +++ (50%-75% = +++) | 134 (GLAVPTPSV; listed as Homo sapiens) [compound 134] |
| ++ (20%-49% = ++) | 111 (AIVDLIHDI; listed as Homo sapiens) [compound 111] |
| +++ (50%-75% = +++) | 102 (VLLDIQEVFQI; listed as Homo sapiens) [compound 102] |
| ++ (20%-49% = ++) | 239 (KMNESTRSV; listed as Homo sapiens) [compound 239] |
| ++++ (> = 75% = ++++) | 129 (RLQDILWFL; listed as Homo sapiens) [compound 129] |
| ++++ (> = 75% = ++++) | 153 (FISERVEVV; listed as Homo sapiens) [compound 153] |
| +++ (50%-75% = +++) | 234 (LLSPHNPAL; listed as Homo sapiens) [compound 234] |
| +++ (50%-75% = +++) | 157 (TLTSLLAQA; listed as Homo sapiens) [compound 157] |

| Peptide exchange (MHC class I binding score, peptide exchange yield) | Substance |
| --- | --- |
| ++++ (> = 75% = ++++) | 95 (GLLGSLFFL; listed as Homo sapiens) [compound 95] |
| +++ (50%-75% = +++) | 246 (TVSDVLNSV; listed as Homo sapiens) [compound 246] |
| ++ (20%-49% = ++) | 254 (KLQGKLPEL; listed as Homo sapiens) [compound 254] |
| + (<20% = +) | 100 (ALLGMIIVGV; listed as Homo sapiens) [compound 100] |
| ++++ (> = 75% = ++++) | 125 (SLADYEHFV; listed as Homo sapiens) [compound 125] |
| ++ (20%-49% = ++) | 136 (FLFGGVLMTL; listed as Homo sapiens) [compound 136] |
| +++ (50%-75% = +++) | 142 (ILVEGISTV; listed as Homo sapiens) [compound 142] |
| +++ (50%-75% = +++) | 105 (ALLGTKILL; listed as Homo sapiens) [compound 105] |
| +++ (50%-75% = +++) | 264 (KLFPQETLFL; listed as Homo sapiens) [compound 264] |
| +++ (50%-75% = +++) | 131 (VTSNSGILGV; listed as Homo sapiens) [compound 131] |
| +++ (50%-75% = +++) | 152 (MMVGDLLEV; listed as Homo sapiens) [compound 152] |
| +++ (50%-75% = +++) | 237 (ALAPHLDDA; listed as Homo sapiens) [compound 237] |
| +++ (50%-75% = +++) | 104 (ALISWQPPRA; listed as Homo sapiens) [compound 104] |
| +++ (50%-75% = +++) | 236 (STIAILNSV; listed as Homo sapiens) [compound 236] |
| ++ (20%-49% = ++) | 98 (RLFPDFFTRVAL; listed as Homo sapiens) [compound 98] |
| ++ (20%-49% = ++) | 115 (SLDPDTLPAV; listed as Homo sapiens) [compound 115] |
